In article PMC8928223, “The Collagen Receptor Discoidin Domain Receptor 1b Enhances Integrin β1-Mediated Cell Migration by Interacting With Talin and Promoting Rac1 Activation” (Frontiers in Cell and Developmental Biology, 2022):

T1: talin head domain (THD, a. a. 1-433), HIS-tagged (UniProt P26039 1-433)
T1 chain: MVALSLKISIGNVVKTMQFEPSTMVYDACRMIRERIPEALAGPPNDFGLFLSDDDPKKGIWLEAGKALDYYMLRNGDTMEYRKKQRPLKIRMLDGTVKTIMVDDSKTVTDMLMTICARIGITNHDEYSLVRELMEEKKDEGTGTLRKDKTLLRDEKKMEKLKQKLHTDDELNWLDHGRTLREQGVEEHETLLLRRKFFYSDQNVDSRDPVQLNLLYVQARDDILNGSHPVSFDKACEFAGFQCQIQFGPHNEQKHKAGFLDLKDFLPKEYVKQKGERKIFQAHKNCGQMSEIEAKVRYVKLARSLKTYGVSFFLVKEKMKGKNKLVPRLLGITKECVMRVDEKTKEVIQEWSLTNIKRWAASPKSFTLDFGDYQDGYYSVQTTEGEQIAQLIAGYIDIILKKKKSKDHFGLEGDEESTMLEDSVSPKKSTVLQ


Experiments:
[1] = target: T1, talin head domain (THD, a. a. 1-433), …; assay: ELISA
[2] = target: T2, DDR1b-Turbo containing a Flag tag (human, UniProt Q08345-1 19-913); assay: proximity labelling; BioID with turbo-Flag fused to DDR1 in HEK cells plated on collagen I (30 µg/ml) for 1-3 h with 50 µM biotin; streptavidin-agarose pull-down of the lysate and Western blot; settings: partners not purified
T2 construct: Discoidin domain receptor 1, isoform DDR1b, human, fused to the biotin ligase turbo-Flag as bait for BioID; construct described in Borza et al., 2021; source: HEK 293, stably transfected, in live cells and lysate

| Kd [1] [nM] | fold increase in biotinylated BCR against DDR1a-expressing cells [2] [fold] | Binder |
| --- | --- | --- |
| 220 |  | DDR1a cytoplasmic domain (domain or fragment) WRLHWRRLLSKAERRVLEEELTVHLSVPGDTILINNRPGPREPPPYQEPRPRGNPPHSAPCVPNGSAYSGDYMEPEKPGAPLLPPPPQNSVPHYAEADIVTLQGVTGGNTYAVPALPPGAVGDGPPRVDFPRSRLRFKEKLGEGQFGEVHLCEVDSPQDLVSLDFPLNVRKGHPLLVAVKILRPDATKNARNDFLKEVKIMSRLKDPNIIRLLGVCVQDDPLCMITDYMENGDLNQFLSAHQLEDKAAEGAPGDGQAAQGPTISYPMLLHVAAQIASGMRYLATLNFVHRDLATRNCLVGENFTIKIADFGMSRNLYAGDYYRVQGRAVLPIRWMAWECILMGKFTTASDVWAFGVTLWEVLMLCRAQPFGQLTDEQVIENAGEFFRDQGRQVYLSRPPACPQGLYELMLRCWSRESEQRPPFSQLHRFLAEDALNTV |
|  | 2.92 ± 1.42 | Breakpoint cluster region protein (BCR) (natural protein, human (endogenous in HEK 293), UniProt P11274 1-1271, looked up, biotinylated by the turbo ligase in cells, Breakpoint cluster region protein, in HEK 293 cells, detected with an anti-BCR antibody after streptavidin pull-down; source: endogenous, HEK 293 cells, in lysate) MVDPVGFAEAWKAQFPDSEPPRMELRSVGDIEQELERCKASIRRLEQEVNQERFRMIYLQTLLAKEKKSYDRQRWGFRRAAQAPDGASEPRASASRPQPAPADGADPPPAEEPEARPDGEGSPGKARPGTARRPGAAASGERDDRGPPASVAALRSNFERIRKGHGQPGADAEKPFYVNVEFHHERGLVKVNDKEVSDRISSLGSQAMQMERKKSQHGAGSSVGDASRPPYRGRSSESSCGVDGDYEDAELNPRFLKDNLIDANGGSRPPWPPLEYQPYQSIYVGGMMEGEGKGPLLRSQSTSEQEKRLTWPRRSYSPRSFEDCGGGYTPDCSSNENLTSSEEDFSSGQSSRVSPSPTTYRMFRDKSRSPSQNSQQSFDSSSPPTPQCHKRHRHCPVVVSEATIVGVRKTGQIWPNDGEGAFHGDADGSFGTPPGYGCAADRAEEQRRHQDGLPYIDDSPSSSPHLSSKGRGSRDALVSGALESTKASELDLEKGLEMRKWVLSGILASEETYLSHLEALLLPMKPLKAAATTSQPVLTSQQIETIFFKVPELYEIHKEFYDGLFPRVQQWSHQQRVGDLFQKLASQLGVYRAFVDNYGVAMEMAEKCCQANAQFAEISENLRARSNKDAKDPTTKNSLETLLYKPVDRVTRSTLVLHDLLKHTPASHPDHPLLQDALRISQNFLSSINEEITPRRQSMTVKKGEHRQLLKDSFMVELVEGARKLRHVFLFTDLLLCTKLKKQSGGKTQQYDCKWYIPLTDLSFQMVDELEAVPNIPLVPDEELDALKIKISQIKNDIQREKRANKGSKATERLKKKLSEQESLLLLMSPSMAFRVHSRNGKSYTFLISSDYERAEWRENIREQQKKCFRSFSLTSVELQMLTNSCVKLQTVHSIPLTINKEDDESPGLYGFLNVIVHSATGFKQSSNLYCTLEVDSFGYFVNKAKTRVYRDTAEPNWNEEFEIELEGSQTLRILCYEKCYNKTKIPKEDGESTDRLMGKGQVQLDPQALQDRDWQRTVIAMNGIEVKLSVKFNSREFSLKRMPSRKQTGVFGVKIAVVTKRERSKVPYIVRQCVEEIERRGMEEVGIYRVSGVATDIQALKAAFDVNNKDVSVMMSEMDVNAIAGTLKLYFRELPEPLFTDEFYPNFAEGIALSDPVAKESCMLNLLLSLPEANLLTFLFLLDHLKRVAEKEAVNKMSLHNLATVFGPTLLRPSEKESKLPANPSQPITMTDSWSLEVMSQVQVLLYFLQLEAIPAPDSKRQSILFSTEV |
| 96.5 |  | DDR1b cytoplasmic domain (domain or fragment) WRLHWRRLLSKAERRVLEEELTVHLSVPGDTILINNRPGPREPPPYQEPRPRGNPPHSAPCVPNGSALLLSNPAYRLLLATYARPPRGPGPPTPAWAKPTNTQAYSGDYMEPEKPGAPLLPPPPQNSVPHYAEADIVTLQGVTGGNTYAVPALPPGAVGDGPPRVDFPRSRLRFKEKLGEGQFGEVHLCEVDSPQDLVSLDFPLNVRKGHPLLVAVKILRPDATKNARNDFLKEVKIMSRLKDPNIIRLLGVCVQDDPLCMITDYMENGDLNQFLSAHQLEDKAAEGAPGDGQAAQGPTISYPMLLHVAAQIASGMRYLATLNFVHRDLATRNCLVGENFTIKIADFGMSRNLYAGDYYRVQGRAVLPIRWMAWECILMGKFTTASDVWAFGVTLWEVLMLCRAQPFGQLTDEQVIENAGEFFRDQGRQVYLSRPPACPQGLYELMLRCWSRESEQRPPFSQLHRFLAEDALNTV |
